The test system of the test is carbamoylphosphate synthetase (CPSase). Briefly: CPSase activity in reaction of carbamoylphosphate (CP) synthesis from glutamine or ammonia, protein extracts, CP by capillary zone electrophoresis. The class given is biochemical, E. coli. The method, then: Then, the protein extracts from these 9 clones B-6969(pEL-carAB-NN) and one clone B-6969(pEL-carAB-6) were used to evaluate the activity and fbr of mutant CPSases in reaction of carbamoylphosphate (CP) synthesis from glutamine or ammonia.
The crude cellular extracts from cells were prepared by sonication of 20 mg wet cells pellet suspended in 0.5 ml of buffer A (200 mM K2HPO4/KH2PO4, pH 8.0, 1 mM EDTA, 1 mM PMSF, 1 mM DTT) and treated with solid ammonium sulfate to achieve 65% of saturation. After incubation for 10 min at 4° C., the suspensions were centrifuged at 13,000 rpm for 10 min and the precipitates were dissolved in 1 ml of buffer B (20 mM K2HPO4/KH2PO4, pH 8.0, 50 mM KCl, 1 mM PMSF, 1 mM DTT). The aliquots of obtained protein extracts were used to evaluate the CPSase activity. The schemes of reaction were following: Gln+CO2+2MgATP+H2O→NH2COOPO3^2−+2MgADP+Glu+P1 I. NH3+CO2+[…]+H2O→NH2COOPO3^2−+2MgADP+P1 II.
The 50 μl of each reaction mixture included:
reaction I—20 mM tris-HCl, pH 8.0, 100 mM KCl, 5 mM Na2CO3, 10 mM ATP, 10 mM MgCl2, 5 mM glutamine, 10 μl of protein extract;
reaction II—20 mM tris-HCl, pH 8.0, 100 mM KCl, 5 mM Na2CO3, 10 mM ATP, 10 mM MgCl2, 200mM (NH4)2SO4, 10 μl of protein extract. […]
After incubation for 10 min at 37° C. reactions were stopped by addition of equal volume of EtOH, cooled at −20° C. for 10 min and centrifuged at 13,000 rpm for 1 min at room temperature. Supernatants were cooled at −20° C.
The CP content in reaction mixtures was analyzed by capillary zone electrophoresis. The separation was performed on a Quanta 4000E Capillary Electrophoresis System (“Waters”, USA) with UV indirect detection at 254 nm. The injection was performed by hydrostatic for 25 s. The separation was carried out with an uncoated fused-silica capillary (75 u I.D.* 60cm, effective length 53 cm) and was operated at −25 kV potential. Temperature was maintained at 20° C. The separation buffer consisted of 50 mM Tris base, 25mM benzoic acid (for indirect detection), pH 8.5, 0.25mM TTAB (tetradecyl-trimethyl-ammonium bromide) (for reversion of electroosmotic flow).

B1: clone Wt: wild type E. coli CPSase; CarB 947-951 -Leu-Ser-Val-Arg-Glu- (SEQ ID NO: 28) (protein, UniProt P0A6F1 1-382; P00968 2-1073, looked up)
Carbamoyl phosphate synthase … 1: MIKSALLVLEDGTQFHGRAIGATGSAVGEVVFNTSMTGYQEILTDPSYSRQIVTLTYPHIGNVGTNDADEESSQVHAQGLVIRDLPLIASNFRNTEDLSSYLKRHNIVAIADIDTRKLTRLLREKGAQNGCIIAGDNPDAALALEKARAFPGLNGMDLAKEVTTAEAYSWTQGSWTLTGGLPEAKKEDELPFHVVAYDFGAKRNILRMLVDRGCRLTIVPAQTSAEDVLKMNPDGIFLSNGPGDPAPCDYAITAIQKFLETDIPVFGICLGHQLLALASGAKTVKMKFGHHGGNHPVKDVEKNVVMITAQNHGFAVDEATLPANLRVTHKSLFDGTLQGIHRTDKPAFSFQGHPEASPGPHDAAPLFDHFIELIEQYRKTAK
Carbamoyl phosphate synthase … 2: PKRTDIKSILILGAGPIVIGQACEFDYSGAQACKALREEGYRVILVNSNPATIMTDPEMADATYIEPIHWEVVRKIIEKERPDAVLPTMGGQTALNCALELERQGVLEEFGVTMIGATADAIDKAEDRRRFDVAMKKIGLETARSGIAHTMEEALAVAADVGFPCIIRPSFTMGGSGGGIAYNREEFEEICARGLDLSPTKELLIDESLIGWKEYEMEVVRDKNDNCIIVCSIENFDAMGIHTGDSITVAPAQTLTDKEYQIMRNASMAVLREIGVETGGSNVQFAVNPKNGRLIVIEMNPRVSRSSALASKATGFPIAKVAAKLAVGYTLDELMNDITGGRTPASFEPSIDYVVTKIPRFNFEKFAGANDRLTTQMKSVGEVMAIGRTQQESLQKALRGLEVGATGFDPKVSLDDPEALTKIRRELKDAGADRIWYIADAFRAGLSVDGVFNLTNIDRWFLVQIEELVRLEEKVAEVGITGLNADFLRQLKRKGFADARLAKLAGVREAEIRKLRDQYDLHPVYKRVDTCAAEFATDTAYMYSTYEEECEANPSTDREKIMVLGGGPNRIGQGIEFDYCCVHASLALREDGYETIMVNCNPETVSTDYDTSDRLYFEPVTLEDVLEIVRIEKPKGVIVQYGGQTPLKLARALEAAGVPVIGTSPDAIDRAEDRERFQHAVERLKLKQPANATVTAIEMAVEKAKEIGYPLVVRPSYVLGGRAMEIVYDEADLRRYFQTAVSVSNDAPVLLDHFLDDAVEVDVDAICDGEMVLIGGIMEHIEQAGVHSGDSACSLPAYTLSQEIQDVMRQQVQKLAFELQVRGLMNVQFAVKNNEVYLIEVNPRAARTVPFVSKATGVPLAKVAARVMAGKSLAEQGVTKEVIPPYYSVKEVVLPFNKFPGVDPLLGPEMRSTGEVMGVGRTFAEAFAKAQLGSNSTMKKHGRALLSVREGDKERVVDLAAKLLKQGFELDATHGTAIVLGEAGINPRLVNKVHEGRPHIQDRIKNGEYTYIINTTSGRRAIEDSRVIRRSALQYKVHYDTTLNGGFATAMALNADATEKVISVQEMHAQIK
For the molecule B1, the “Activity, (CP)” value runs as follows: (Substrate: 5 mM Gln) 1350 nmol/mg/min; (Substrate: 5 mM Gln, Allosteric effector: 10 mM UMP) 170 nmol/mg/min; (Substrate: 200 mM (NH4)2SO4) 425 nmol/mg/min.
